± gives the uncertainty stated by the source.
Test: self-splicing fitness, log relative to wild type (ln ratio); higher = more splicing; Tetrahymena group I intron in knt gene, E. coli kanamycin selection, DiMSum; sequences stand for … in CUCUCU…GGAGGGAAAAGUUAUCAGGCAUGCACCUGGUAGCUAGUCUUUAAACCAAUAGAUUGCAUCGGUUUAAAAGGCAAGACCGUCAAAUUGCGGGAAAGGGGUCAACAGCCGUUCAGUACCAAGUCUCAGGGGAAACUUUGAGAUGGCCUUGCAAAGGGUAUGGUAAUAAGCUGACGGACAUGGUCCUAACCACGCAGCCAAGUCCUAAGUCAACAGAUCUUCUGUUGAUAUGGAUGCAGUUCACAGACUAAAUGUCGGUCGGGGAAGAUGUAUUCUUCUCAUAAGAUAUAGUCGGACCUCUCCUUAAUGGGAGCUAGCGGAUGAAGUGAUGCAACACUGGAGCCGCUGGGAACUAAUUUGUAUGCGAAAGUAUAUUGAUUAGUUUUGGAGUACUCGUGGUCG
How it was run: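 Library with all eight P1ex-region intron nucleotides randomised, intron inside the knt kanamycin-resistance gene on pET-22b(+), in E. coli BL21(DE3). Cells grew overnight at 37°C or 30°C on LB agar with or without 25 μg/mL kanamycin (plus 100 μg/mL carbenicillin, 50 μM IPTG, 0.2% rhamnose), in six replicate transformations. Pooled colonies were amplicon-sequenced on Illumina HiSeq 2500. DiMSum fitness is the error-weighted combination of wild-type-normalised replicate fold changes, kanamycin versus none.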

Row | Sequence | self-splicing fitness (ln) (30 °C) | self-splicing fitness (ln) (37 °C)
1 | AGAGAGCAAUAUUACGGUCA | -2.48 ± 0.49 | -1.97 ± 0.24
2 | UGCGAGCAAUAUUACGACUU | -2.13 ± 0.43 | -1.7 ± 0.41
3 | UUGAAGCAAUAUUACGACGG | 0.0862 ± 0.13 | 0.756 ± 0.17
4 | UCAAAGCAAUAUUACGGCCC | -3.79 ± 0.47 | -2.18 ± 0.46
5 | GAUCAGCAAUAUUACGUAAG | -1.58 ± 0.097 | -1.13 ± 0.12
6 | UCGUAGCAAUAUUACGGGUU | -3.23 ± 0.18 | -2.38 ± 0.23
7 | UACAAGCAAUAUUACGUAAA | -2.45 ± 0.073 | -1.38 ± 0.087
8 | UUGGAGCAAUAUUACGAAUG | -3.5 ± 0.2 | -2.31 ± 0.21
9 | AAUUAGCAAUAUUACGCAUC | -2.79 ± 0.24 | -1.15 ± 0.2
10 | CACCAGCAAUAUUACGUGGA | -3.55 ± 0.12 | -2.12 ± 0.09
11 | CCGUAGCAAUAUUACGAUAC | -3.22 ± 0.24 | 
12 | AAAAAGCAAUAUUACGUCUU | -0.301 ± 0.043 | 0.361 ± 0.063
13 | GCACAGCAAUAUUACGAUUA | -1.38 ± 0.087 | -0.549 ± 0.086
14 | CGAUAGCAAUAUUACGAUGC | -4.1 ± 0.21 | -1.81 ± 0.15
15 | UUCCAGCAAUAUUACGGCAA | -0.0711 ± 0.1 | 0.362 ± 0.12
16 | CGCAAGCAAUAUUACGCUGC | -2.59 ± 0.33 | -2.41 ± 0.3
17 | GCGCAGCAAUAUUACGCGGC |  | -3.69 ± 0.37
18 | ACUUAGCAAUAUUACGGGCA | -1.04 ± 0.091 | 0.0835 ± 0.096
19 | GACCAGCAAUAUUACGCAUG | -1.2 ± 0.073 | -1.65 ± 0.09
20 | CAUAAGCAAUAUUACGCAUA | -2.48 ± 0.18 | -1.71 ± 0.24
21 | UAGAAGCAAUAUUACGCUCU | -2.53 ± 0.2 | -2.75 ± 0.32
22 | CAAAAGCAAUAUUACGGAGC | -2.95 ± 0.18 | -2.84 ± 0.25
23 | CCUCAGCAAUAUUACGGUUC | -3.33 ± 0.14 | -3.16 ± 0.27
24 | CGCCAGCAAUAUUACGCGAU | -3.87 ± 0.2 | -2.22 ± 0.17
25 | GUUCAGCAAUAUUACGACUU | -0.0631 ± 0.073 | -0.409 ± 0.079
26 | CCGAAGCAAUAUUACGGAGA | -2.52 ± 0.25 | -2.68 ± 0.34

Row | Sequence | self-splicing fitness (ln) (30 °C) | self-splicing fitness (ln) (37 °C)
27 | UAACAGCAAUAUUACGUCUC | -3.01 ± 0.12 | -3.02 ± 0.2
28 | CUAAAGCAAUAUUACGUGGU | -3.41 ± 0.12 | -2.73 ± 0.15
29 | GUAAAGCAAUAUUACGCUAU | -1.22 ± 0.087 | -0.23 ± 0.1
30 | UCUUAGCAAUAUUACGAGUU | -2.85 ± 0.16 | -0.665 ± 0.15
31 | CGUGAGCAAUAUUACGUUUU | -3.42 ± 0.16 | -3.73 ± 0.37
32 | AAAUAGCAAUAUUACGCUGG | -1.94 ± 0.13 | -1.15 ± 0.17
33 | AUCGAGCAAUAUUACGGUCA | -2.98 ± 0.18 | -2.07 ± 0.18
34 | GCUAAGCAAUAUUACGACAC | -0.804 ± 0.074 | 0.369 ± 0.11
35 | CCGCAGCAAUAUUACGCUGG | -2.24 ± 0.11 | -2.92 ± 0.24
36 | GUGAAGCAAUAUUACGAAGU | -0.832 ± 0.14 | -1.05 ± 0.16
37 | GGACAGCAAUAUUACGAAAU | -1.25 ± 0.11 | -0.0392 ± 0.14
38 | AUAAAGCAAUAUUACGAUCC | -1.21 ± 0.2 | -0.716 ± 0.22
39 | CGGAAGCAAUAUUACGUAAG | -0.619 ± 0.072 | 0.241 ± 0.1
40 | GAACAGCAAUAUUACGUAAA | -0.541 ± 0.061 | 0.234 ± 0.075
41 | UUUAAGCAAUAUUACGGUCA | -1.15 ± 0.12 | -0.266 ± 0.1
42 | ACGUAGCAAUAUUACGCAAU | -2.95 ± 0.17 | -1.53 ± 0.22
43 | CAUCAGCAAUAUUACGCUGC |  | -2.61 ± 0.3
44 | UACUAGCAAUAUUACGCUAA | -1.31 ± 0.14 | -0.697 ± 0.1
45 | UUCAAGCAAUAUUACGACAG | -1.5 ± 0.11 | -1.1 ± 0.095
46 | UGCGAGCAAUAUUACGAUUU | -3.11 ± 0.37 | -0.802 ± 0.16
47 | UUGCAGCAAUAUUACGCGGU | -3.63 ± 0.35 | 
48 | CGGAAGCAAUAUUACGUUAC |  | -2.57 ± 0.2
49 | AUAGAGCAAUAUUACGAAUC | -3.82 ± 0.25 | -2.63 ± 0.3
50 | ACUAAGCAAUAUUACGUUUA | -3.27 ± 0.17 | -2.48 ± 0.14
51 | ACAGAGCAAUAUUACGAGUG | -4.35 ± 0.37 | -3.43 ± 0.29
52 | GGAUAGCAAUAUUACGAUCG | -0.534 ± 0.095 | 0.652 ± 0.14

Row | Sequence | self-splicing fitness (ln) (30 °C) | self-splicing fitness (ln) (37 °C)
53 | AACUAGCAAUAUUACGUGCC | -1.39 ± 0.12 | -0.755 ± 0.13
54 | GGCCAGCAAUAUUACGAGAA |  | -2.06 ± 0.36
55 | UUUGAGCAAUAUUACGGAGC | -2.02 ± 0.49 | 
56 | CAAGAGCAAUAUUACGAUGU | -3.88 ± 0.23 | -2.73 ± 0.25
57 | ACUCAGCAAUAUUACGCGAA | -1.48 ± 0.061 | -0.686 ± 0.069
58 | GGUUAGCAAUAUUACGGGCU | -3.26 ± 0.41 | -1.68 ± 0.32
59 | AAUGAGCAAUAUUACGGUGU | -4.53 ± 0.29 | -2.55 ± 0.19
60 | CCUGAGCAAUAUUACGUGGG | -3.25 ± 0.15 | -2.85 ± 0.2
61 | ACUCAGCAAUAUUACGUCCG | -2.16 ± 0.14 | -1.21 ± 0.15
62 | AAAUAGCAAUAUUACGUGAU | -2.26 ± 0.099 | -1.89 ± 0.11
63 | UGAUAGCAAUAUUACGACGC |  | -3.55 ± 0.29
64 | UAACAGCAAUAUUACGCAGU | -3.43 ± 0.19 | -3.5 ± 0.27
65 | AGCAAGCAAUAUUACGUUUA | -2.1 ± 0.13 | -1.96 ± 0.15
66 | AGACAGCAAUAUUACGCUCU | -2.08 ± 0.18 | -0.598 ± 0.15
67 | UAGAAGCAAUAUUACGCAUU | -2.41 ± 0.29 | -2.59 ± 0.3
68 | UCGUAGCAAUAUUACGUCCU | -2.04 ± 0.21 | -1.63 ± 0.31
69 | UAAAAGCAAUAUUACGGAUG | -0.849 ± 0.077 | 0.0272 ± 0.099
70 | UCUGAGCAAUAUUACGCUGC | -2.24 ± 0.37 | -1.46 ± 0.34
71 | GCGAAGCAAUAUUACGCAUA | -1.92 ± 0.2 | -1.76 ± 0.16
72 | AGUGAGCAAUAUUACGAACG | -0.686 ± 0.094 | -0.206 ± 0.15
73 | UUAAAGCAAUAUUACGCAUC | -1.88 ± 0.17 | -1.39 ± 0.34
74 | UCUGAGCAAUAUUACGAGUA | -2.16 ± 0.16 | -2.17 ± 0.26
75 | GAAUAGCAAUAUUACGGAGU | -2.02 ± 0.18 | -2.03 ± 0.23
76 | GACGAGCAAUAUUACGCUUU | -3.17 ± 0.46 | -0.0656 ± 0.19
77 | ACGUAGCAAUAUUACGCUUU | -1.92 ± 0.058 | -1.11 ± 0.075

Source: the supplement of paper PMC7877785
